Results reported in patent publication US20060099671.

Test system: human plasminogen
Sequence (chain, as listed by the source): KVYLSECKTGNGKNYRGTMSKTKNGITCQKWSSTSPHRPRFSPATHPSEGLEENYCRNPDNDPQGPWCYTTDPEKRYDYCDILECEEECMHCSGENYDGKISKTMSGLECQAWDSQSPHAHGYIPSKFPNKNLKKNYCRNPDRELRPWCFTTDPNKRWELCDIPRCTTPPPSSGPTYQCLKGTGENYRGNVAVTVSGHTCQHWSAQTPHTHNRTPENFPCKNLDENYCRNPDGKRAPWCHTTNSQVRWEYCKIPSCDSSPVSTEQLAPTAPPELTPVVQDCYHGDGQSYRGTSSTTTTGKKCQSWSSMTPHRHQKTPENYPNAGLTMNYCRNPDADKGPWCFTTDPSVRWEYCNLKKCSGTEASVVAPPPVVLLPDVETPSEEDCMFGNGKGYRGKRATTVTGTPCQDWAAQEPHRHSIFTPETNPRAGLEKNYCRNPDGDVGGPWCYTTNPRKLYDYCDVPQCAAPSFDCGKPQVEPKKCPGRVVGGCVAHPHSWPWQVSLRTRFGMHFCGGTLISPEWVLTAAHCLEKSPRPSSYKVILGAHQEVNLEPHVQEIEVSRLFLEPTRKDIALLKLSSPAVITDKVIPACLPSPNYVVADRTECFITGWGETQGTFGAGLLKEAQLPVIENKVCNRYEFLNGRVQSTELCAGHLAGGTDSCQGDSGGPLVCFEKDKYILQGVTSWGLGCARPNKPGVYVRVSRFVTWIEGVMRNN

Substance	production of angiostatin (western blot)	conversion of plasminogen to plasmin (Coomassie-stained reduced polyacrylamide gels)
tissue-type plasminogen activator (t-PA)	incubation of plasminogen (0.2 µM) with u-PA (0.2 nM), t-PA (1.0 nM), or streptokinase (8.0 nM) with 100 µM N-acetyl-L-cysteine resulted in the production of angiostatin	–
urokinase-type plasminogen activator (u-PA)	incubation of plasminogen (0.2 µM) with u-PA (0.2 nM), t-PA (1.0 nM), or streptokinase (8.0 nM) with 100 µM N-acetyl-L-cysteine resulted in the production of angiostatin	The complete conversion of plasminogen to plasmin was confirmed
